What was measured:
[1] = target: T1, Aβ monomers prepared from Biotin-beta-Amyloid, Human 1-40 (human, UniProt P05067 672-711, biotin (Biotin-beta-Amyloid; position of the biotin not stated)); experiment: SPR (Biacore T100), biotin-Aβ1-40 monomers captured on SA chip, antibody injected
T1 construct: domain: beta-Amyloid 1-40; captured through biotin on an SA sensor chip; also called amyloid β protein monomer
Procedure: In order to analyze the binding activity of the respective anti-Aβ oligomer humanized antibodies (HV0LV0, HV5aLV0, HV5aLV1b, HV5aLV3, HV6LV0, HV6LV1b, and HV6LV3) against Aβ monomers, the binding activity was measured in the same manner as in (1) of this Example. In addition, the binding activity of anti-Aβ antibody 6E10 (manufactured by CONVANCE) was measured as a control antibody.
The Aβ monomers obtained in (2) of Example (2) were immobilized to the SA sensor chip (manufactured by GE Healthcare Bio-sciences) by the biotin capturing method. Onto the chip to which the Aβ monomers were immobilized, samples for measurement, which were prepared to have 5 levels of density by diluting from 30 μg/mL by doubling dilution in a stepwise manner (HV0LV0, HV5aLV0, HV5aLV1b, HV5aLV3, HV6LV0, HV6LV1b, and HV6LV3) were sequentially injected and measured in the order from the lower density based on the automatic program of the multi-kinetics mode.

[2] = target: T2, Aβ oligomers prepared from Amyloid β-protein, Human 1-42 peptide (human, UniProt P05067 672-713); experiment: SPR (Biacore T100), Aβ oligomers amine-coupled to CM5 chip, antibody injected, Bivalent Analyte model (ka1)
T2 construct: domain: Amyloid β-protein 1-42; Oligomeric preparation (HFIP, DMSO, acetic acid solution pH 4.5, overnight at 4 °C); Amine-coupled to a CM5 chip; also called amyloid β oligomer
T2 sequence (P05067 672-713 limits assumed): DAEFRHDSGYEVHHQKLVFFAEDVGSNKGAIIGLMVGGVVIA
Procedure: (§1) All the following operations were performed using Biocore T100 (manufactured by GE Healthcare Bio-sciences). The Aβ oligomers obtained in (1) of Example 2 were immobilized to the CM5 sensor chip (GE Healthcare Bio-sciences) using the amine coupling method.
(§2) Onto the chip to which the Aβ oligomers were immobilized for measurement samples prepared to have 8 levels of density by diluting from 30 μg/mL by doubling dilution in a stepwise manner (HV0LV0, HV5aLV0, HV5aLV1b, HV5aLV3, HV6LV0, HV6LV1b, and HV6LV3) was sequentially injected and measured in the order from the lower density based on the automatic program of the multi-kinetics.
(§3) Using the analysis software attached to the device, Biacore T100 Evaluation software (manufactured by Biacore Life Science), analysis was carried out with the Bivalent Analyte model to calculate the binding rate constant ka and the dissociation rate constant kd of each of the antibody against Aβ oligomers.

[3] = target: T2, Aβ oligomers prepared from Amyloid …; experiment: SPR (Biacore T100), Aβ oligomers amine-coupled to CM5 chip, antibody injected, Bivalent Analyte model (kd1)
Procedure: as §1, §2, §3

[4] = target: T2, Aβ oligomers prepared from Amyloid …; experiment: SPR (Biacore T100), Aβ oligomers amine-coupled to CM5 chip, antibody injected, Bivalent Analyte model (kd1/ka1)
Procedure: as §1, §2, §3

T1 sequence (P05067 672-711 limits assumed): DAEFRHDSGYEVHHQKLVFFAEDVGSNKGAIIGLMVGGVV

Binder	binding result [1]	kon [2]	koff [3]	Kd [4]
anti-Aβ oligomer humanized antibody HV0LV0 (antibody, V domains shown, purified on Prosep vA; also called HV0LVV0; 4H5HV0 + 4H5LV0) VH: DVQLVESGGGVVQPGRSLRLSCAASGFTFSSFGMHWVRQAPGKGLQWMVYISSGSSTIYYADTVKGRFTISRDNSRSTLFLQMNSLRGEDTAVYYCARTGTRAYWGQGTLVTVSS VL: DIVMTQSPLSLPVTPGEPASISCRSSQSIVHSNGNTYLEWYLQKPGQSPQLLIYKVSNRFSGVPDRFSGSGSGTDFTLKISRVEAEDVGVYYCFQGSHVPPTFGQGTKLEIK	no binding	14000 M⁻¹ s⁻¹	0.0014 s⁻¹	100 nM
anti-Aβ oligomer humanized antibody HV5aLV1b (antibody, V domains shown) VH: DVQLVESGGGVVQPGRSLRLSCAASGFTFSSFGMHWVRQAPGKGLEWVAYISSGSSTIYYADTVKGRFTISRDNSRSTLFLQMNSLRGEDTAMYYCAGTGTRAYWGQGTLVTVSS VL: DIVMTQSPLSLPVTLGEPASISCRSSQSIVHSNGNTYLEWYLQKPGQSPQLLIYKVSNRFSGVPDRFSGSGSGTDFTLKISRVEAEDVGVYYCFQGSHVPPTFGQGTKLEIK	no binding	9800 M⁻¹ s⁻¹	0.00088 s⁻¹	90 nM
anti-Aβ oligomer humanized antibody HV6LV3 (antibody, V domains shown) VH: DVQLVESGGGVVQPGRSLRLSCAASGFTFSSFGMHWVRQAPGKGLEWVAYISSGSSTIYYADTVKGRFTISRDNSRNTLFLQMNSLRGEDTAMYYCAGTGTRAYWGQGTLVTVSS VL: DVVMTQSPLSLPVTLGEPASISCRSSQSIVHSNGNTYLEWYLQKPGQSPKLLIYKVSNRFSGVPDRFSGSGSGTDFTLKISRVEAEDVGVYYCFQGSHVPPTFGQGTKLEIK	no binding	8200 M⁻¹ s⁻¹	0.00092 s⁻¹	110 nM
anti-Aβ oligomer humanized antibody HV5aLV0 (antibody, V domains shown, also called HV5aVL0) VH: DVQLVESGGGVVQPGRSLRLSCAASGFTFSSFGMHWVRQAPGKGLEWVAYISSGSSTIYYADTVKGRFTISRDNSRSTLFLQMNSLRGEDTAMYYCAGTGTRAYWGQGTLVTVSS VL: DIVMTQSPLSLPVTPGEPASISCRSSQSIVHSNGNTYLEWYLQKPGQSPQLLIYKVSNRFSGVPDRFSGSGSGTDFTLKISRVEAEDVGVYYCFQGSHVPPTFGQGTKLEIK	no binding	11000 M⁻¹ s⁻¹	0.00063 s⁻¹	55 nM

From patent publication US20120009180A1 (Kyowa Kirin, published 2012)
